Assay results published in US20220112268A1.

Legend:
[1] = molecular target: T cell receptor of OT-I T cells (cognate to the SIINFEKL tetramer), on OT-I T cells; assay: labeled NP incubated with an OT-I/OT-II T cell mixture (1:1); reference free αPD-1 (FIG. 7B)
[2] = molecular target: PD-1 on PD-1-positive cells (EL4 cells) (UniProt Q02242); assay: inhibition of PD-L1-human Fc binding to EL4 cells; reference intact αPD-1
[3] = molecular target: PD-1 on PD-1-positive cells (EL4 cells) (UniProt Q02242); assay: inhibition of PD-L1-human Fc (10 µg/mL) binding to EL4 cells, flow cytometry, competitor PD-L1-human Fc
[4] = molecular target: PD-1 on PD-1-positive cells (EL4 cells) (UniProt Q02242); assay: direct binding of Alexa Fluor 647-labeled sample to EL4 cells, flow cytometry, fraction of positive cells
[5] = molecular target: PD-1 on PD-1-positive cells (EL4 cells) (UniProt Q02242); assay: direct binding to EL4 cells, flow cytometry; reference intact αPD-1
[6] = molecular target: PD-1 on PD-1-positive cells (EL4 cells) (UniProt Q02242); assay: inhibition of PD-L1-human Fc binding to EL4 cells; reference soluble αPD-1-iTEP fusion

UniProt Q02242, sequence (Q02242 25-288 limits assumed): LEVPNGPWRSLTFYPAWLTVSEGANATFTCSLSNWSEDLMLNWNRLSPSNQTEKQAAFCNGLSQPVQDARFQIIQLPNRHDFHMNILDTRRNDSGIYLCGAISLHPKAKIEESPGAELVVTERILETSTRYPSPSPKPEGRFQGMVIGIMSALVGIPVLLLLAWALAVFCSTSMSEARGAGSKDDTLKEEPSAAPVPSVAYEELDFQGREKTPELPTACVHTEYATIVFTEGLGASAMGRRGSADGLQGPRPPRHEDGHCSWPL

Substance | targeting efficiency (OT-I:OT-II ratio of guided NPs divided by the OT-I:OT-II ratio of free αPD-1) [1] | fold lower inhibition capacity than intact αPD-1 [2] [fold] | EC50 [3] [nM] | EC50 [4] [nM] | fold smaller EC50 than intact αPD-1 [5] [fold] | fold stronger avidity than intact αPD-1 [5] [fold] | fold higher inhibition capacity than the soluble αPD-1-iTEP fusion [6] [fold]
αPD-1 scFv (recombinant single-chain variable fragment of the anti-PD-1 antibody clone RMP1-14), NH2-Histag(H6)-(GGGSG)3-VH-(GGGSG)4-VL-COOH |  | 3 | 4160 | 320 |  |  | 
intact αPD-1 (anti-programmed death-1 antibody, RMP1-14 clone, IgG from hybridoma ascites) |  |  | 1320 | 110 |  |  | 

Other lines, results leading:

targeting efficiency (OT-I:OT-II ratio of guided NPs divided by the OT-I:OT-II ratio of free αPD-1) [1] | fold lower inhibition capacity than intact αPD-1 [2] [fold] | EC50 [3] [nM] | EC50 [4] [nM] | fold smaller EC50 than intact αPD-1 [5] [fold] | fold stronger avidity than intact αPD-1 [5] [fold] | fold higher inhibition capacity than the soluble αPD-1-iTEP fusion [6] [fold] | Substance
37.3 |  |  |  |  |  |  | SIINFEKL tetramer-guided αPD-1 NP, nanoparticle assembled from iTEP-αPD-1 and iTEP-tetramer (H2-Kb/SIINFEKL) mixed at a 1-to-10 ratio (from UniProt P22629 37-163; P01901 22-305)
 |  | 1190 | 39 | 3 | 4 | 3 | αPD-1 NP, the nanoparticle form of the αPD-1-iTEP fusion, self-assembled and crosslinked by disulfide bonds
 | 3 | 4590 | 400 |  |  |  | soluble αPD-1-iTEP fusion, αPD-1(scFv) fused to the amphiphilic diblock iTEP (GAGVPG)70-(GVLPGVG)56-(GC)4
